Series [1] deals with DPP-IV (Homo sapiens, UniProt P27487). The experiment in a line: Degradation of GIP and Glu3-substituted GIP analogs by DPP-IV (HPLC). It is filed as in vitro ADME. Conditions: for Intact Peptide Remaining (%) 0 hrs. / remaining at 2 h, 2 μm / remaining at 4 h, 2 μm / remaining at 8 h, 2 μm: incubation with DPP-IV (5 mU), 37°C; for Intact Peptide Remaining (%) 0 hrs.: pH 7.8, 0 hrs; for half-life: incubation with DPP-IV, unit not given (time points in hrs), read-out: Estimated Half-Life; for remaining at 2 h, 2 μm / remaining at 4 h, 2 μm / remaining at 8 h, 2 μm: isolated DPP-IV enzyme (5 mU); for remaining at 2 h, 2 μm: pH 7.8, 2 hrs, read-out: Intact Peptide Remaining (%) 2 hrs.; for remaining at 4 h, 2 μm: pH 7.8, 4 hrs, read-out: Intact Peptide Remaining (%) 4 hrs.; for remaining at 8 h, 2 μm: pH 7.8, 8 hrs, read-out: Intact Peptide Remaining (%) 8 hrs.

Series [2] deals with T1, human GIP-R (Homo sapiens, UniProt P48546).
T1 construct: expressed in transfected cells; host or cells: Chinese Hamster Lung (CHL) fibroblast cells, stably transfected
T1 sequence (P48546 22-466): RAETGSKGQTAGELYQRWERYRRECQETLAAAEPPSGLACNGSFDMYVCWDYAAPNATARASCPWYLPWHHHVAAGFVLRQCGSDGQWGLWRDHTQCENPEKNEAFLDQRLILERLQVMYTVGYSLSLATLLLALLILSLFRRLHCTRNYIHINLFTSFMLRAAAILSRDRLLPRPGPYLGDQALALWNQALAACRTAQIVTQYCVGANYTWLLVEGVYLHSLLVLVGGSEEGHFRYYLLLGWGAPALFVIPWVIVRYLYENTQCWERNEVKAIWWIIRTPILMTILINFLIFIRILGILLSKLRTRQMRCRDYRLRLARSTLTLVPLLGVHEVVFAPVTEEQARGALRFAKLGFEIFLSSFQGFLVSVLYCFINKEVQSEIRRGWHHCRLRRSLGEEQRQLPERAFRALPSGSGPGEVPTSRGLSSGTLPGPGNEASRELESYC
Briefly: Cyclic AMP production in GIP-R transfected CHL cells. The class given is cell-based. How it is done:
Tissue Culture. […] (v/v) fetal bovine serum, 1% (v/v) antibiotics (100 U/ml penicillin, 0.1 mg/ml streptomycin) (all from Gibco, Paisley, Strathclyde, Scotland). BRIN-BD11 cells were cultured in RPMI-1640 tissue culture medium containing 10% (v/v) fetal bovine serum, 1% (v/v) antibiotics (100 U/ml penicillin, 0.1 mg/ml streptomycin) and 11.1 mm glucose. The origin and secretory characteristics of these cells have been described in detail previously (McClenaghan, N. H. et al., 1996, Diabetes 45:1132-1140). The cells were maintained in sterile tissue culture flasks (Corning Glass Works, Sunderland, UK) at 37° C. in an atmosphere of 5% CO2 and 95% air using a LEEC incubator (Laboratory Technical Engineering, Nottingham, UK).
Methods. […] The culture medium was removed and cells subsequently washed twice with 2 ml ice-cold HBS buffer (130 mm NaCl, 20 mm HEPES, 0.9 mm NaHPO4, 0.8 mm MgSO4, 5.4 mm KCl, 1.8 mm CaCl2, 5.6 mm glucose and 25 μm phenol red) (pH 7.4). […] The medium was subsequently removed and the cells lysed with […] of lysing solution (5% TCA, 3% SDS, 92% H2O, also containing 0.1 mm unlabelled cAMP and 0.1 mm unlabelled ATP) (Sigma, Poole, Dorset, UK). The plates were then left on a shaker at room temperature for 30 minutes and tritiated cAMP formation determined by column chromatography using Dowex and alumina ion exchange columns (BioRad Life Science Research, Alpha Analytical, Larne, UK) as previously described (Gault, V. A. et al 2002, Biochem. J. 367:913-920).

Series [3] concerns the target T2, human GIP receptor (GIP-R) (human, UniProt P48546 22-466).
T2 sequence (looked up): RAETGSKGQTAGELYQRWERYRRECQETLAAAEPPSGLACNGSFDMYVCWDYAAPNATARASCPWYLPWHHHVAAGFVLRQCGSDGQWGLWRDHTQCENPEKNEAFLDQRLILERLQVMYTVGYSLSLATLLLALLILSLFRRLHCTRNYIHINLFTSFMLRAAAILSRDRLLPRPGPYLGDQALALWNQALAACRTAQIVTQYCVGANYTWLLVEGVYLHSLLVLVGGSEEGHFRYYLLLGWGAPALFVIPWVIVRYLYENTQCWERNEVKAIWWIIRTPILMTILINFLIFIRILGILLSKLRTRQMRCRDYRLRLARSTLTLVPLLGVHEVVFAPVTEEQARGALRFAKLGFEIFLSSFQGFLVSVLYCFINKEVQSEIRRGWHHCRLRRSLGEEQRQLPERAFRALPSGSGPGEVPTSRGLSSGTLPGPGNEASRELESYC
Briefly: cell-based or functional assay.

Square brackets hold non-standard residues; d marks the D form. Ends that are not written are not given here. * marks the point of attachment. Palmitoyl = CCCCCCCCCCCCCCCC(=O)*; Hyp = O=C(O)[C@@H]1C[C@@H](O)CN1 A value given as a limit tells only on which side of the number the result lay.

The values below come from patent US20090170762A1, “Treatment of Diabetes Related Obesity” (UUTech Limited, priority 2005, published 2009).

Sequence of DPP-IV (P27487 whole entry, species assumed): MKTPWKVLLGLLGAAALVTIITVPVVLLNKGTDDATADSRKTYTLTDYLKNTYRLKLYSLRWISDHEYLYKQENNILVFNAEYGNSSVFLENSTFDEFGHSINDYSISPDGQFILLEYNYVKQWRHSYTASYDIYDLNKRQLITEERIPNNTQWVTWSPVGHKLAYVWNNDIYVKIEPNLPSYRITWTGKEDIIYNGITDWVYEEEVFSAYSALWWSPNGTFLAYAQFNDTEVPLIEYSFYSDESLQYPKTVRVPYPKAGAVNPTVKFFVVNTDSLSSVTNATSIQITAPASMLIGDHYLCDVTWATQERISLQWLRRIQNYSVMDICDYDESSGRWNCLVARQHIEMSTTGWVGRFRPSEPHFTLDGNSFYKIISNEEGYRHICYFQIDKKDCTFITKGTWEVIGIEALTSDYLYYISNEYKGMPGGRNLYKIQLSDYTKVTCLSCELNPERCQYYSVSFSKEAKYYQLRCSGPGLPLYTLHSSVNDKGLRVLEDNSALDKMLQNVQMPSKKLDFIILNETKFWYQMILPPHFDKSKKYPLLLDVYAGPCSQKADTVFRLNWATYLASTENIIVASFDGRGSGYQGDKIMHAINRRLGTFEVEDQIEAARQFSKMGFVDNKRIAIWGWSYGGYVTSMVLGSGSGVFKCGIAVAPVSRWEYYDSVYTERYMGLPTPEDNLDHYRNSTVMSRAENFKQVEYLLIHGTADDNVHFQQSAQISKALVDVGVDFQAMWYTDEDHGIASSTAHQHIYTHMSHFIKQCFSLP

As usually defined, the half-life is the time needed for the level to fall by half in the phase considered. One may read the fraction remaining as what is left of the initial amount, in per cent. As for “YA[Hyp]GTFISDYSIAMDK(Palmitoyl)IHQQDFVNWLLAQKGKKNDWKHNITQ [(Hyp^3)LysPAL^16GIP]”, in series [1], the “Intact Peptide Remaining (%) 0 hrs.” value worked out at 100%; the half-life was more than 8 h; the amount remaining at 2 h, 2 μm came to 100%; the fraction remaining at 4 h, 2 μm came out at 100%. For the same molecule, the amount remaining at 8 h, 2 μm in series [1] came to 100%.
What is called EC50 is the concentration giving half of the maximal effect. A low value points to an effect from little substance. Turning to “YA[Hyp]GTFISDYSIAMDKIHQQDFVNWLLAQKGKKNDWKHNITQ [(Hyp^3)GIP]”, in series [1], the “Intact Peptide Remaining (%) 0 hrs.” value came out at 100%; the half-life is more than 8 h; the fraction remaining at 2 h, 2 μm was 100%; the fraction remaining at 4 h, 2 μm is 100%. The amount remaining at 8 h, 2 μm in series [1] amounted to 100%. Also, in series [1] (words, up to 8 hours incubation), the “resistance to DPP-IV degradation” value was “completely resistant”. In series [2], this molecule came in with an EC50 of 1.34 µM. For the same molecule, the remaining activity at 0.1 µM in series [2] (CHL, read-out: cAMP response in presence of 10^-7 M GIP (% GIP max)) was 56 ± 4%.
Turning to “native GIP (glucose-dependent insulinotropic polypeptide; gastric inhibitory polypeptide), GIP(1-42) (from UniProt P09681 52-93) (ligand)”, in series [3], the Cyclic AMP EC50 (nm) stood at 0.5 nm and the cAMP response in presence of 10^-7 M GIP (% GIP max) amounted to 100 % GIP max.

B1: (Hyp^3)LysPAL^16GIP (peptide)
peptide: YA[Hyp]GTFISDYSIAMDK(Palmitoyl)IHQQDFVNWLLAQKGKKNDWKHNITQ
B1: in series [3], the “Cyclic AMP EC50 (nm)” value is 138 nm and the “cAMP response in presence of 10^-7 M GIP (% GIP max)” value (shortened to “cAMP response … (% GIP max)”) came to 48 % GIP max.

B2: (Hyp^3)GIP (peptide)
peptide: YA[Hyp]GTFISDYSIAMDKIHQQDFVNWLLAQKGKKNDWKHNITQ
B2: in series [3], the “Cyclic AMP EC50 (nm)” value was 1340 nm and the “cAMP response … (% GIP max)” value came out at 56 % GIP max.

B3: (Pro^3)LysPAL^16GIP (peptide)
peptide: YAPGTFISDYSIAMDK(Palmitoyl)IHQQDFVNWLLAQKGKKNDWKHNITQ
B3: in series [3], the “Cyclic AMP EC50 (nm)” value came out at 870 nm and the “cAMP response … (% GIP max)” value was 63 % GIP max.

B4: (Ala^3)GIP (peptide)
peptide: YAAGTFISDYSIAMDKIHQQDFVNWLLAQKGKKNDWKHNITQ
As to B4, in series [3], the “Cyclic AMP EC50 (nm)” value is 2.3 nm and the “cAMP response … (% GIP max)” value worked out at 88 % GIP max.

B5: (Phe^3)GIP (peptide)
peptide: YAFGTFISDYSIAMDKIHQQDFVNWLLAQKGKKNDWKHNITQ
As to B5, in series [3], the “Cyclic AMP EC50 (nm)” value is 1 nm and the “cAMP response … (% GIP max)” value stood at 62 % GIP max.

B6: (Lys^3)GIP (peptide)
peptide: YAKGTFISDYSIAMDKIHQQDFVNWLLAQKGKKNDWKHNITQ
With B6, in series [3], the “Cyclic AMP EC50 (nm)” value was found to be 2.6 nm and the “cAMP response … (% GIP max)” value was determined as 63.5 % GIP max.

B7: (Pro^3)GIP (peptide)
peptide: YAPGTFISDYSIAMDKIHQQDFVNWLLAQKGKKNDWKHNITQ
B7: in series [3], the “Cyclic AMP EC50 (nm)” value was found to be 207 nm and the “cAMP response … (% GIP max)” value turned out to be 66 % GIP max.

B8: (Tyr^3)GIP (peptide)
peptide: YAYGTFISDYSIAMDKIHQQDFVNWLLAQKGKKNDWKHNITQ
For B8, in series [3], the “Cyclic AMP EC50 (nm)” value was 1.5 nm and the “cAMP response … (% GIP max)” value turned out to be 76 % GIP max.

B9: (Trp^3)GIP (peptide)
peptide: YAWGTFISDYSIAMDKIHQQDFVNWLLAQKGKKNDWKHNITQ
On to B9, for which, in series [3], the “Cyclic AMP EC50 (nm)” value came to 3 nm and the “cAMP response … (% GIP max)” value came out at 78 % GIP max.
